The values that follow are results of earlier work, collected in article PMC5992718.

For this data set, the target named is PD-L1 (Homo sapiens) (UniProt Q9NZQ7).
Sequence of UniProt Q9NZQ7 (Q9NZQ7 19-238): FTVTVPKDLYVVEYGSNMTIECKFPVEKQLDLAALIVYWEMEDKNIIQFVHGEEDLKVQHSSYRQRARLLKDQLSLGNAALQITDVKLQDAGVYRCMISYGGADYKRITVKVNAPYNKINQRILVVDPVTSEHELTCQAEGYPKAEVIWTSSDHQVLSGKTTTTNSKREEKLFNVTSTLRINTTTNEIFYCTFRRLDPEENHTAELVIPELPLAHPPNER

What is called Kd is the constant that tells how readily two partners part at equilibrium. For PD-1 (from UniProt Q02242), the Kd was 29.8 µM.
